Reference: the supplement of paper PMC9732359
± gives the uncertainty stated by the source.

Assay: protein stability index of a GFP-peptide fusion (yeast GPS) (PSI 1-4); higher = more stable; sorted into four equal gates, so the index is relative within each strain
Method in brief: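 For each peptide, the protein stability index sums the read frequency in every gate after multiplying it by the gate number. Read frequencies came from plasmids that were PCR-amplified from each gate and Illumina-sequenced, with reads assigned to strains by barcodes. The gates were four equal bins of GFP/Cherry fluorescence ratio applied to mid-log yeast in leucine-free medium carrying a pooled library of tiled 17-residue yeast protein peptides fused downstream of GFP on a Cherry-expressing plasmid.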

Sequence | protein stability index (doa10∆) | protein stability index (pdr5∆) | protein stability index (san1∆) | protein stability index (ubr1∆)
LSGLAQRKTNGASNGDD [BRN1] | 3.15 ± 0.17 | 3.29 ± 0.17 | 3.05 ± 0.077 | 3.6 ± 0.15
PETCLFVSYFGKQIKST [YML103C/NUP188] | 2.61 ± 0.051 | 2.45 ± 0.039 | 2.27 ± 0.062 | 2.64 ± 0.037
LISRMIFIATQLEKKIR [BRR2] | 1.75 ± 0.075 | 1.9 ± 0.059 | 1.28 ± 0.12 | 2.03 ± 0.054
AIIYQRGKDGKLHVAAK [YGL100W/SEH1] | 3.25 ± 0.12 | 3.31 ± 0.1 | 2.9 ± 0.13 | 3.02 ± 0.18
RKQIDETQVLVSTPEKW [BRR2] | 2.07 ± 0.052 | 2.46 ± 0.058 | 2.31 ± 0.055 | 2.77 ± 0.028
RNDSTVNDSVISAPSME [BRN1] | 2.71 ± 0.085 | 2.95 ± 0.083 | 2.78 ± 0.061 | 2.96 ± 0.061
ANNYSSNIGNNSINNNN [YDL088C/ASM4] | 2.51 ± 0.071 | 3.19 ± 0.078 | 2.94 ± 0.085 | 2.76 ± 0.054
PIDAGLNEAPFPEENII [MCD1] | 3.01 ± 0.069 | 2.88 ± 0.054 | 3.06 ± 0.033 | 2.96 ± 0.041
QIEKKKICRGRMNTIIT [SIR4] | 3.52 ± 0.17 | 3.43 ± 0.14 | 3.52 ± 0.24 | 2.63 ± 0.27
KGPRFRKLTSQEINDRL [PRE8] | 3.09 ± 0.098 | 3.19 ± 0.11 | 3.06 ± 0.18 | 3.58 ± 0.093
VSLEERTKNLVSKMEKA [SMC4] | – | 2.95 ± 0.064 | – | –
RAGQRGYHSRTSINHKI [RPL3] | 2.85 ± 0.13 | 3.23 ± 0.14 | 3 ± 0.096 | 3.5 ± 0.12
IGEGAKLVRDAFALAKE [RPT5] | 3.51 ± 0.12 | 3.38 ± 0.14 | 3.3 ± 0.093 | 3.5 ± 0.11
GDKEATAPLIQRKNKKN [RPN8] | 3.22 ± 0.15 | 3.42 ± 0.12 | 3.18 ± 0.088 | 3.15 ± 0.18
GISRDIKALQDSLFKDV [YML103C/NUP188] | 2.19 ± 0.077 | 1.99 ± 0.063 | 2.07 ± 0.089 | 1.77 ± 0.042
KSMSILNSFVNDIFERI [HTB1] | 2.73 ± 0.1 | 3.18 ± 0.13 | 2.47 ± 0.2 | 2.94 ± 0.062
SKLRNNIRSQLLSENRS [SRP54] | 2.8 ± 0.069 | 2.58 ± 0.094 | 2.67 ± 0.06 | 2.85 ± 0.049
QDVLQMLGRAGRPRYDT [BRR2] | 3.41 ± 0.21 | 2.56 ± 0.23 | 3.43 ± 0.14 | 2.81 ± 0.28
PWYNNPVSCIIQNDEEY [PRP8] | 1.88 ± 0.13 | 2.05 ± 0.094 | 2.43 ± 0.13 | 1.05 ± 0.12
NQQQQQQQQQQQQRRQL [GAL11] | 2.79 ± 0.056 | 2.9 ± 0.063 | 2.84 ± 0.043 | 2.91 ± 0.051
TQQPGTNSHYNNTNTDN [SNF2] | 3.17 ± 0.046 | 3.26 ± 0.04 | 3.21 ± 0.036 | 3.204 ± 0.028
DAPFNKVVLKALFLSKI [RPL18A] | 1.55 ± 0.1 | 1.56 ± 0.074 | 1.25 ± 0.13 | 1.32 ± 0.067
SVRLQRFYQLGVDLKLK [CSN12] | 3.2 ± 0.21 | 3.13 ± 0.23 | 3.01 ± 0.24 | 3.06 ± 0.12
RVWAEYATKRQEAIQQN [PRP8] | 2.37 ± 0.15 | 2.56 ± 0.1 | 2.61 ± 0.1 | 2.2 ± 0.096
VTLDITTLTIMRILPRE [RPT4] | 2.53 ± 0.057 | 2.25 ± 0.061 | 2.17 ± 0.081 | 2.45 ± 0.038
KAMDIPIGRHEELLAQY [SWP82] | 2.07 ± 0.044 | 2.25 ± 0.043 | 2.13 ± 0.068 | 2 ± 0.029
KALDNACGAFININEFA [CDC53] | 2.56 ± 0.12 | 3 ± 0.14 | 2.71 ± 0.094 | 2.82 ± 0.15

Sequence | protein stability index (doa10∆) | protein stability index (pdr5∆) | protein stability index (san1∆) | protein stability index (ubr1∆)
DVNDVLTKYIRSKNLIF [GRR1] | 2.68 ± 0.066 | 2.78 ± 0.08 | 2.19 ± 0.083 | 2.68 ± 0.043
AAPLLALLRENQDSVKT [RPN2] | 2.55 ± 0.18 | 3.23 ± 0.1 | 3 ± 0.15 | 2.6 ± 0.11
ISTACPRLDDVVVDTVE [SMC4] | 3.51 ± 0.071 | 3.43 ± 0.094 | 3.3 ± 0.058 | 3.46 ± 0.093
QESLLSRTFDKYSKLVD [SRP72] | 2.83 ± 0.059 | 2.9 ± 0.068 | 2.99 ± 0.055 | 2.7 ± 0.04
KIVDKDGIRQVDDFQAQ [PRE1] | 2.9 ± 0.14 | 2.9 ± 0.11 | – | –
KLAFGLTKLNEDDLVGV [TAF14] | 2.94 ± 0.092 | 3.15 ± 0.072 | 3.25 ± 0.054 | 3 ± 0.057
NINATNTSVLMKLKLMI [YCS4] | 2.08 ± 0.093 | 1.5 ± 0.079 | 1.48 ± 0.13 | 2.24 ± 0.077
HTSPHQPSDVKPTSHKQ [SIR4] | 2.76 ± 0.057 | 3.08 ± 0.059 | 2.9 ± 0.047 | 2.52 ± 0.044
RMLLNLCKSATTKMWPT [BRR2] | 1.47 ± 0.068 | 1.79 ± 0.1 | 1.7 ± 0.12 | 1.99 ± 0.069
ILSLATEGCIGLSQTEA [MCD1] | 2.58 ± 0.056 | 2.49 ± 0.068 | 2.81 ± 0.09 | 2.4 ± 0.062
IILSIDEHHESFELKEE [RRP6] | 3.19 ± 0.1 | 2.99 ± 0.15 | 3.08 ± 0.08 | 2.98 ± 0.088
QIIQRDKINKYSLIRET [SNF5] | 1.39 ± 0.093 | 1.3 ± 0.13 | – | 1.15 ± 0.2
DSENNEENSSSNGNNLP [RGR1] | 2.96 ± 0.061 | 2.96 ± 0.056 | 2.96 ± 0.055 | 3.06 ± 0.039
GRDAFHLRVRVHPFHVL [RPL10] | 1.7 ± 0.061 | 2 ± 0.077 | 1.86 ± 0.11 | 2.09 ± 0.048
LIRLQMEKLDAKLNHLK [SWI3] | 3.06 ± 0.17 | 3.04 ± 0.15 | 2.85 ± 0.15 | 3.1 ± 0.2
EHLDCMNFISKEEFIMM [PCI8] | – | – | – | 3.17 ± 0.16
SDNIASLQYINIRGNTI [SMD1] | 3.08 ± 0.059 | 3.22 ± 0.056 | 2.86 ± 0.063 | 3.01 ± 0.048
IAYGASQLLLERLMISS [RET1] | 1.75 ± 0.092 | 1.94 ± 0.073 | 2 ± 0.16 | 1.39 ± 0.069
AEYAQLLAKRLSERKAE [RPS6A] | 2.41 ± 0.051 | 2.11 ± 0.048 | 2.16 ± 0.082 | 2.28 ± 0.038
SLHRQQQQQQQQVPPLP [DLS1] | 2.78 ± 0.056 | 2.81 ± 0.06 | 2.63 ± 0.046 | 2.94 ± 0.061
KQFVVDVLHPNRANVSK [RPS24A] | 2.94 ± 0.073 | 3.24 ± 0.082 | 2.96 ± 0.079 | 3.07 ± 0.05
VNLSEVMTVPGIDPTRI [RPO21] | 2.92 ± 0.083 | 3.07 ± 0.094 | 3.11 ± 0.05 | 3.05 ± 0.064
LSSYQKKIIKCDEHMGL [PRE5] | 2.19 ± 0.1 | 2.37 ± 0.13 | 2.19 ± 0.21 | 2.71 ± 0.22
LANWFLEVYASGNPNAT [YML031W/NDC1] | 2.03 ± 0.055 | 2.17 ± 0.046 | 2.37 ± 0.075 | 1.69 ± 0.045
DDDDDEDEEEEEEVTDQ [QCR6] | 3.02 ± 0.061 | 3.73 ± 0.22 | 3.4 ± 0.047 | 3.4 ± 0.12
SAPAPAAAAPAPVAAAA [FAS2] | 3.24 ± 0.24 | 3.21 ± 0.28 | 2.49 ± 0.13 | 3.28 ± 0.29
